In data set [1] the target is Gal4 activation domain-E2F-1 hybrid protein (pGAD.E2F-1) (yeast) (UniProt P04386). Put plainly: cell-based or functional assay.
The target in the next data set is T1, wild-type E2F-1^1-437 (Homo sapiens (Human), UniProt Q01094 1-437, radiolabelled with 35S methionine (in vitro translated form) ; chain 1: radiolabelled with 35S methionine (in vitro translated form); letters unchanged).
T1 construct: Translated in reticulocyte lysate for the pull-down; The same full-length protein was expressed from pE2F-1/pCMV E2F-1 in the transfection assays; also called in vitro transcribed and translated E2F-1 polypeptide; pE2F-1
Put plainly: GST pull-down (glutathione-agarose) of in vitro translated 35S-labelled E2F-1. The source says:
DP-1 and E2F-1 were expressed as, and released from, GST fusion proteins as previously described (Girling et al., 1993). About 100-fold excess of the competing binding sites were used in gel retardation assays, with the binding site taken from the adenovirus E2A promoter (−71 to −50). The wild-type E2F-1 coding sequence was transcribed and further translated using reticulocyte lysate (Promega) and radiolabelled with ^35S methionine. In the dimerization assay (FIG. 2d), GST-DP-1 fusion protein was incubated with E2F-1 polypeptide for 30 min at 30° C., collected with glutathione-agarose (Sigma), and washed repeatedly with 0.1% NF40-in PBSA. Bound E2F-1 polypeptide was released by denaturation in SDS sample buffer and resolved in a 10% polyacrylamide gel.
GST fusion proteins, or GST protein along (track 2), were collected with glutathione-agarose beads and bound E2F-1 polypeptide released.

Data set [2] addresses DP-1(84-204)/E2F-1(89-437) heteromer (Mus musculus / Homo sapiens?, UniProt Q08639;Q01094 Q08639:84-204,Q01094:89-437). Put plainly: EMSA; less than with DP-1 84-249. The settings on record: tags: DP-1 thrombin-released or GST; E2F-1 GST. The method, then: (§1) Cell extracts were prepared as previously described (La Thangue et al., 1990). Gel retardation in F9 EC and HeLa cell extracts (about 6.0 µg) in the presence of anti-DP-1 was performed as previously described (Girling et al., 1993), and immunoprecipitation with anti-DP-1 from HeLa cell extracts was performed by standard procedures. The immunoprecipitates were treated with 1% DOC and 1.5% NP40 and the detergent released material assayed for DRTF1/E2F by gel retardation and the presence of E2F-1 by immunoblotting with the anti-E2F-1 monoclonal antibody SQ41 (Kaelin et al., 1992). The anti-DP-1 antibodies, anti-peptide A and anti-peptide 18, have been previously described (Girling et al., 1993). Rabbit anti-E2F-1 antiserum (antiserum 134) was raised against a peptide which represents E2F-1 amino acid sequence 315 to 323. The sequences of the binding sites used to assess DNA binding specificity were derived from the adenovirus E2A promoter (−71 to −50) and were as follows: WT; […] (SEQ ID NO: 7); 62/60, […]; (SEQ ID NO: 8); 63, […] (SEQ ID NO: 9); 64, […] (SEQ ID NO: 10). In FIG. 2a (tracks 1 to 4), the adenovirus E2A promoter (−96 to +68) was used; in all other cases, the distal E2F site in the E2A promoter (sequences −71 to −50) was used. About 100-fold excess of competing binding sites were used in the gel retardation assays.
On the technique in general: In EMSA bound probe runs differently from free probe, usually more slowly.

For data set [3], the target named is DP-1(84-249)/E2F-1(89-437) heteromer (Mus musculus / Homo sapiens?, UniProt Q08639;Q01094 Q08639:84-249,Q01094:89-437). Put plainly: EMSA; greater than E2F-1 alone. Conditions: tags: DP-1 thrombin-released or GST; E2F-1 GST. As for the experimental part:
as §1, with “assays. […]” for “assays.”

The target in another data set is GST-E2F-1(89-437) (UniProt Q01094 Q01094:89-437). Briefly: EMSA. Conditions: tags: GST.
For data set [4], the target named is DP-1(59-410)/E2F-1(89-437) heteromer (Mus musculus / Homo sapiens?, UniProt Q08639;Q01094 Q08639:59-410,Q01094:89-437). Put plainly: EMSA; synergistic; anti-E2F-1 supershift, anti-DP-1 inhibits. Conditions: tags: GST on both.

The record followed here is patent US7160677, “Transcription factor DP-1” (Topotarget UK Limited).

DP-1(59-410)/E2F-1(89-437) heteromer, sequence (Q08639 59-410, chain 1 of 2): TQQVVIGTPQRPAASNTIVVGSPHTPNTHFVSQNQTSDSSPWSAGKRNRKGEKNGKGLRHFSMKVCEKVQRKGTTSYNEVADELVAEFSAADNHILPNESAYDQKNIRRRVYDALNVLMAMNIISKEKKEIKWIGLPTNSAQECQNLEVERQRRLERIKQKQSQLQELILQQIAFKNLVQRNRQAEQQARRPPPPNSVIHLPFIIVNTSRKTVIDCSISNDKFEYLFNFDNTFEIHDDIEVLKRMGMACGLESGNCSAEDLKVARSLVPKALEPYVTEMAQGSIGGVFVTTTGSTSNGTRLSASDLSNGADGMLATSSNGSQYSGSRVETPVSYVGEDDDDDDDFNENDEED
DP-1(59-410)/E2F-1(89-437) heteromer, sequence (Q01094 89-437, chain 2 of 2): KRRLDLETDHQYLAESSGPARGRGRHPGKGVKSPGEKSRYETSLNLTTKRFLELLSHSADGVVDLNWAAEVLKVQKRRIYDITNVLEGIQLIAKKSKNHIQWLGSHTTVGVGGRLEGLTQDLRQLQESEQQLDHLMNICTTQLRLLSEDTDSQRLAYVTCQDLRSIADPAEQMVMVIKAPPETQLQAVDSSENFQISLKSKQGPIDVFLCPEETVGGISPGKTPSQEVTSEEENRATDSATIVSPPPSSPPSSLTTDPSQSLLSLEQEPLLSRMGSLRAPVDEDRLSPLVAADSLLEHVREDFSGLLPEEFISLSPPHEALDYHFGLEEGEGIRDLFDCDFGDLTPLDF
T1 sequence (Q01094 whole entry): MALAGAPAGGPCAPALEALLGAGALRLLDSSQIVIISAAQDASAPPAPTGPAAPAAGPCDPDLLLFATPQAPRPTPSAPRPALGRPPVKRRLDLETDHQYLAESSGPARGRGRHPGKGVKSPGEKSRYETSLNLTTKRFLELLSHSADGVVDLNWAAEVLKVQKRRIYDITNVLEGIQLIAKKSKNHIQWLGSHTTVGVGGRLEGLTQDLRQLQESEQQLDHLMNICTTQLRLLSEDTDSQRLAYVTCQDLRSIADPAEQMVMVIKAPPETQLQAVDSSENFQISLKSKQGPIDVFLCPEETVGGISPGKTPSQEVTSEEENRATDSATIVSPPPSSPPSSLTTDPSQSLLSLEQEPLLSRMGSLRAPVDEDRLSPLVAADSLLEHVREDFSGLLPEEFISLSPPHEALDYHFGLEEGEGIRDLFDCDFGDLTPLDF
DP-1(84-204)/E2F-1(89-437) heteromer, sequence (Q01094 89-437, one chain of several): as the sequence (Q01094 89-437, chain 2 of 2) above
DP-1(84-249)/E2F-1(89-437) heteromer, sequence (Q01094 89-437, one chain of several): as the sequence (Q01094 89-437, chain 2 of 2) above
GST-E2F-1(89-437), sequence (Q01094 89-437, one chain of several): as the sequence (Q01094 89-437, chain 2 of 2) above

In the case of “LexA-DP-1 hybrid protein (pLEX.DP-1) (from UniProt P0A7C2 1-202)”, in data set [1], the activity of p4xWT CYC1 (E2F site-dependent transcription in yeast, β-galactosidase) worked out at 50 fold and the transcriptional activity of the LexA reporter construct (yeast two-hybrid, β-galactosidase) stood at 75 fold.

B1: GST-DP-1^84-166 (other)
chain: PNTHFVSQNQTSDSSPWSAGKRNRKGEKNGKGLRHFSMKVCEKVQRKGTTSYNEVADELVAEFSAADNHILPNESAYDQKNIR
notes: Uncleaved GST fusion; not shown: glutathione-S-transferase (GST)
Regarding B1, the binding result with wild-type E2F-1^1-437 is recorded as “no binding (tested: about 2 µg GST fusion protein)”.

B2: E2A distal E2F site WT (-71 to -50) (dsDNA)
DNA 1: TAGTTTTCGCGCTTAAATTTGA
DNA 2: TCAAATTTAAGCGCGAAAACTA
B2: the binding result (in data set [2]; in data set [3]; in the data set with GST-E2F-1(89-437); in data set [4]) was “binds” each time.
